In patent US20160083465A1 (AVEO PHARMACEUTICALS, published 2016):

T1: mouse IgG1 Fc-mature human GDF15 fusion protein (mFc-rhGDF15) (mouse; human)
T1 construct: Made in CHOK1SV cells, purified by Protein A and size exclusion; also called mouse Fc fused to human GDF15
T1 chain: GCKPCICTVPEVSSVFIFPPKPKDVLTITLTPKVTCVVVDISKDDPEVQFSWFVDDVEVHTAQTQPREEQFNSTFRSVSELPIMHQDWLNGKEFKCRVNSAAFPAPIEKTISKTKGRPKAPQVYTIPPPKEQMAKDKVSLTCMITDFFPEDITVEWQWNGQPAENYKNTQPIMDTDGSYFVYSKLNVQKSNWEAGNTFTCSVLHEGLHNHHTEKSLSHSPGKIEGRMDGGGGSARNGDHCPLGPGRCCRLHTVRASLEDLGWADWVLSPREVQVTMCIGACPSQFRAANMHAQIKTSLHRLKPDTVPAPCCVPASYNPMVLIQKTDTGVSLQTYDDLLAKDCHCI

B1: Hu01G06-105 (antibody, human IgG1, kappa)
heavy: not shown
light: DIQMTQSPSSLSASVGDRVTITCRTSENLHNYLAWYQQKPGKSPKLLIYDAKTLADGVPSRFSGSGSGTDYTLTISSLQPEDFATYYCQHFWSSPYTFGQGTKLEIKRTVAAPSVFIFPPSDEQLKSGTASVVCLLNNFYPREAKVQWKVDNALQSGNSQESVTEQDSKDSTYSLSSTLTLSKADYEKHKVYACEVTHQGLSSPVTKSFNRGEC
notes: Humanized, human IgG1 kappa; tested in supernatant
B2: Hu01G06-114 (antibody, human IgG1, kappa)
heavy: not shown
light: DIQMTQSPSSLSASVGDRVTITCRTSENLHNYLAWYQQKPGKAPKLLIYDAKTLADGVPSRFSGSGSGTDYTLTISSLQPEDFATYYCQHFWSSPYTFGQGTKLEIKRTVAAPSVFIFPPSDEQLKSGTASVVCLLNNFYPREAKVQWKVDNALQSGNSQESVTEQDSKDSTYSLSSTLTLSKADYEKHKVYACEVTHQGLSSPVTKSFNRGEC
notes: as for B1
B3: Hu01G06-107 (antibody, human IgG1, kappa)
heavy: not shown
light: DIQMTQSPSSLSASVGDRVTITCRTSENLHNYLAWYQQKPGKSPKLLIYDAKTLADGVPSRFSGSGSGTDYTLTISSLQPEDFATYYCQHFWSSPYTFGQGTKLEIKRTVAAPSVFIFPPSDEQLKSGTASVVCLLNNFYPREAKVQWKVDNALQSGNSQESVTEQDSKDSTYSLSSTLTLSKADYEKHKVYACEVTHQGLSSPVTKSFNRGEC
notes: as for B1
B4: Hu01G06-109 (antibody, human IgG1, kappa)
heavy: not shown
light: DIQMTQSPSSLSASVGDRVTITCRTSENLHNYLAWYQQKPGKSPKLLIYDAKTLADGVPSRFSGSGSGTDYTLTISSLQPEDFATYYCQHFWSSPYTFGQGTKLEIKRTVAAPSVFIFPPSDEQLKSGTASVVCLLNNFYPREAKVQWKVDNALQSGNSQESVTEQDSKDSTYSLSSTLTLSKADYEKHKVYACEVTHQGLSSPVTKSFNRGEC
notes: as for B1
B5: Hu01G06-102 (antibody, human IgG1, kappa)
heavy: not shown
light: DIQMTQSPSSLSASVGDRVTITCRTSENLHNYLAWYQQKPGKSPKLLVYDAKTLADGVPSRFSGSGSGTDYTLTISSLQPEDFATYYCQHFWSSPYTFGQGTKLEIKRTVAAPSVFIFPPSDEQLKSGTASVVCLLNNFYPREAKVQWKVDNALQSGNSQESVTEQDSKDSTYSLSSTLTLSKADYEKHKVYACEVTHQGLSSPVTKSFNRGEC
notes: as for B1
B6: Hu01G06-111 (antibody, human IgG1, kappa)
heavy: not shown
light: DIQMTQSPSSLSASVGDRVTITCRTSENLHNYLAWYQQKPGKAPKLLIYDAKTLADGVPSRFSGSGSGTDYTLTISSLQPEDFATYYCQHFWSSPYTFGQGTKLEIKRTVAAPSVFIFPPSDEQLKSGTASVVCLLNNFYPREAKVQWKVDNALQSGNSQESVTEQDSKDSTYSLSSTLTLSKADYEKHKVYACEVTHQGLSSPVTKSFNRGEC
notes: as for B1
B7: Hu01G06-108 (antibody, human IgG1, kappa)
heavy: not shown
light: DIQMTQSPSSLSASVGDRVTITCRTSENLHNYLAWYQQKPGKSPKLLIYDAKTLADGVPSRFSGSGSGTDYTLTISSLQPEDFATYYCQHFWSSPYTFGQGTKLEIKRTVAAPSVFIFPPSDEQLKSGTASVVCLLNNFYPREAKVQWKVDNALQSGNSQESVTEQDSKDSTYSLSSTLTLSKADYEKHKVYACEVTHQGLSSPVTKSFNRGEC
notes: as for B1
B8: Hu01G06-100 (antibody, human IgG1, kappa)
heavy: not shown
light: DIQMTQSPSSLSASVGDRVTITCRTSENLHNYLAWYQQKPGKSPKLLVYDAKTLADGVPSRFSGSGSGTDYTLTISSLQPEDFATYYCQHFWSSPYTFGQGTKLEIKRTVAAPSVFIFPPSDEQLKSGTASVVCLLNNFYPREAKVQWKVDNALQSGNSQESVTEQDSKDSTYSLSSTLTLSKADYEKHKVYACEVTHQGLSSPVTKSFNRGEC
notes: as for B1
B9: Hu01G06-101 (antibody, human IgG1, kappa)
heavy: not shown
light: DIQMTQSPSSLSASVGDRVTITCRTSENLHNYLAWYQQKPGKSPKLLVYDAKTLADGVPSRFSGSGSGTDYTLTISSLQPEDFATYYCQHFWSSPYTFGQGTKLEIKRTVAAPSVFIFPPSDEQLKSGTASVVCLLNNFYPREAKVQWKVDNALQSGNSQESVTEQDSKDSTYSLSSTLTLSKADYEKHKVYACEVTHQGLSSPVTKSFNRGEC
notes: as for B1
B10: Hu01G06-112 (antibody, human IgG1, kappa)
heavy: not shown
light: DIQMTQSPSSLSASVGDRVTITCRTSENLHNYLAWYQQKPGKAPKLLIYDAKTLADGVPSRFSGSGSGTDYTLTISSLQPEDFATYYCQHFWSSPYTFGQGTKLEIKRTVAAPSVFIFPPSDEQLKSGTASVVCLLNNFYPREAKVQWKVDNALQSGNSQESVTEQDSKDSTYSLSSTLTLSKADYEKHKVYACEVTHQGLSSPVTKSFNRGEC
notes: as for B1
B11: Hu01G06-103 (antibody, human IgG1, kappa)
heavy: not shown
light: DIQMTQSPSSLSASVGDRVTITCRTSENLHNYLAWYQQKPGKSPKLLVYDAKTLADGVPSRFSGSGSGTDYTLTISSLQPEDFATYYCQHFWSSPYTFGQGTKLEIKRTVAAPSVFIFPPSDEQLKSGTASVVCLLNNFYPREAKVQWKVDNALQSGNSQESVTEQDSKDSTYSLSSTLTLSKADYEKHKVYACEVTHQGLSSPVTKSFNRGEC
notes: as for B1
B12: Hu01G06-104 (antibody, human IgG1, kappa)
heavy: not shown
light: DIQMTQSPSSLSASVGDRVTITCRTSENLHNYLAWYQQKPGKSPKLLVYDAKTLADGVPSRFSGSGSGTDYTLTISSLQPEDFATYYCQHFWSSPYTFGQGTKLEIKRTVAAPSVFIFPPSDEQLKSGTASVVCLLNNFYPREAKVQWKVDNALQSGNSQESVTEQDSKDSTYSLSSTLTLSKADYEKHKVYACEVTHQGLSSPVTKSFNRGEC
notes: as for B1
B13: Hu01G06-110 (antibody, human IgG1, kappa)
heavy: not shown
light: DIQMTQSPSSLSASVGDRVTITCRTSENLHNYLAWYQQKPGKAPKLLIYDAKTLADGVPSRFSGSGSGTDYTLTISSLQPEDFATYYCQHFWSSPYTFGQGTKLEIKRTVAAPSVFIFPPSDEQLKSGTASVVCLLNNFYPREAKVQWKVDNALQSGNSQESVTEQDSKDSTYSLSSTLTLSKADYEKHKVYACEVTHQGLSSPVTKSFNRGEC
notes: as for B1
B14: Hu01G06-106 (antibody, human IgG1, kappa)
heavy: not shown
light: DIQMTQSPSSLSASVGDRVTITCRTSENLHNYLAWYQQKPGKSPKLLIYDAKTLADGVPSRFSGSGSGTDYTLTISSLQPEDFATYYCQHFWSSPYTFGQGTKLEIKRTVAAPSVFIFPPSDEQLKSGTASVVCLLNNFYPREAKVQWKVDNALQSGNSQESVTEQDSKDSTYSLSSTLTLSKADYEKHKVYACEVTHQGLSSPVTKSFNRGEC
notes: as for B1
B15: Hu01G06-113 (antibody, human IgG1, kappa)
heavy: not shown
light: DIQMTQSPSSLSASVGDRVTITCRTSENLHNYLAWYQQKPGKAPKLLIYDAKTLADGVPSRFSGSGSGTDYTLTISSLQPEDFATYYCQHFWSSPYTFGQGTKLEIKRTVAAPSVFIFPPSDEQLKSGTASVVCLLNNFYPREAKVQWKVDNALQSGNSQESVTEQDSKDSTYSLSSTLTLSKADYEKHKVYACEVTHQGLSSPVTKSFNRGEC
notes: as for B1
B16: Hu06C11-1 (antibody, human IgG1, kappa)
heavy: not shown
light: DIVMTQSQKFMSTSVGDRVSVTCKASQNVGTNVAWFQQKPGQSPKALIYSASYRYSGVPDRFTGSGSGTDFILTISNVQSEDLAEYFCQQYNNYPLTFGAGTKLELKRTVAAPSVFIFPPSDEQLKSGTASVVCLLNNFYPREAKVQWKVDNALQSGNSQESVTEQDSKDSTYSLSSTLTLSKADYEKHKVYACEVTHQGLSSPVTKSFNRGEC
notes: Mouse variable regions, human IgG1 and kappa constant regions; also called Chimeric 06C11
B17: Hu06C11-27 (antibody, human IgG1, kappa)
heavy: not shown
light: DIQMTQSPSSLSASVGDRVTITCKASQNVGTNVAWFQQKPGKAPKSLIYSASYRYSGVPSRFSGSGSGTDFTLTISSLQPEDFATYYCQQYNNYPLTFGQGTKLEIKRTVAAPSVFIFPPSDEQLKSGTASVVCLLNNFYPREAKVQWKVDNALQSGNSQESVTEQDSKDSTYSLSSTLTLSKADYEKHKVYACEVTHQGLSSPVTKSFNRGEC
notes: Humanized, human IgG1 kappa
B18: Hu06C11-30 (antibody, human IgG1, kappa)
heavy: not shown
light: DIQMTQSPSSLSASVGDRVTITCKASQNVGTNVAWFQQKPGKAPKSLIYSASYRYSGVPSRFSGSGSGTDFTLTISSLQPEDFATYYCQQYNNYPLTFGQGTKLEIKRTVAAPSVFIFPPSDEQLKSGTASVVCLLNNFYPREAKVQWKVDNALQSGNSQESVTEQDSKDSTYSLSSTLTLSKADYEKHKVYACEVTHQGLSSPVTKSFNRGEC
notes: Humanized, human IgG1 kappa

Target: T1, mouse IgG1 Fc-mature human GDF15 fusion …
Test: SPR Biacore T100, 37 C, antibody from supernatant captured by anti-human IgG Fc, antigen in solution

Row | Binder | Kd [nM] | koff [s⁻¹] | kon [M⁻¹ s⁻¹]
1 | B1 | 0.13 | 0.00056 | 4.3e+06
2 | B2 | 0.13 | 0.00054 | 4.5e+06
3 | B3 | 0.12 | 0.00047 | 4.1e+06
4 | B4 | 0.13 | 0.00056 | 4.6e+06
5 | B5 | 0.11 | 0.00046 | 4.4e+06
6 | B6 | 0.16 | 0.00066 | 4.3e+06
7 | B7 | 0.12 | 0.00046 | 4.2e+06
8 | B8 | 0.15 | 0.00062 | 4.1e+06
9 | B9 | 0.14 | 0.00063 | 4.4e+06
10 | B10 | 0.12 | 0.00053 | 4.7e+06
11 | B11 | 0.11 | 0.00047 | 4.4e+06
12 | B12 | 0.12 | 0.00052 | 4.5e+06
13 | B13 | 0.14 | 0.00058 | 4.3e+06
14 | B14 | 0.16 | 0.0007 | 4.3e+06
15 | B15 | 0.11 | 0.00048 | 4.5e+06

Target: T1, mouse IgG1 Fc-mature human GDF15 fusion …
Test: SPR Biacore T100, 37 C, purified antibody captured by anti-human IgG Fc, antigen in solution
Experimental: Goat anti-human IgGs (Fc fragment specific, Jackson ImmunoResearch, West Grove, Pa.) were immobilized on carboxymethylated dextran CM4 sensor chips by amine coupling, according to a standard protocol. Analyses were performed at 37° C. using PBS containing 0.05% surfactant P20 as running buffer. The antibodies were captured in individual flow cells at a flow rate of 10 μL/minute. Injection time was varied for each antibody to yield an Rmax between 30 and 60 RU. […] The dissociation phase was monitored for up to 1200 seconds. The surface was then regenerated with two 60-second injections of 10 mM Glycine-HCl, pH 2.25, at a flow rate of 30 μL/minute.
Kinetic parameters were determined using the kinetic function of the BIAevaluation software (GE Healthcare) with double reference subtraction.

Row | Binder | Kd [nM] | koff [s⁻¹] | kon [M⁻¹ s⁻¹]
16 | B16 | 0.18 | 0.00084 | 5.3e+06
17 | B17 | 0.18 | 0.00082 | 4.7e+06
18 | B18 | 0.18 | 0.00087 | 4.8e+06
